# In US20160272683A1 (Novo Nordisk, published 2016):
# * marks the point of attachment. C18 diacid = O=C(O)CCCCCCCCCCCCCCCCC(=O)*
# T1: human amylin receptor (human calcitonin receptor + human RAMP3) (human) (UniProt P30988)
# T1 sequence (looked up) 1: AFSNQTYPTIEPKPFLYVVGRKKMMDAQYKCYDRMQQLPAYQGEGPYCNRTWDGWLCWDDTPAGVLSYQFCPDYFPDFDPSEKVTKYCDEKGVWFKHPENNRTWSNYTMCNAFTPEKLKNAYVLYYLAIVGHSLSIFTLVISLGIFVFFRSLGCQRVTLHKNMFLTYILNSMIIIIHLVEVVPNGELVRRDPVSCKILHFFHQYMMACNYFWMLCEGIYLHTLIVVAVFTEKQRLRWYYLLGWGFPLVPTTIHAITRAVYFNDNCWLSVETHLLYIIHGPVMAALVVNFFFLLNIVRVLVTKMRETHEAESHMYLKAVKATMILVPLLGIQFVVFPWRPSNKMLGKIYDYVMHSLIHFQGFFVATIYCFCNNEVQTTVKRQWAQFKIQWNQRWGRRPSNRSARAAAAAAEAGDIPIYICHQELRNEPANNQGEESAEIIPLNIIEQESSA
# T1 sequence (looked up) 2: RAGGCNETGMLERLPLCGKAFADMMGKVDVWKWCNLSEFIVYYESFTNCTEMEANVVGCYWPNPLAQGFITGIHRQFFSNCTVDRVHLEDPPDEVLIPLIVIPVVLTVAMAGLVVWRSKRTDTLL
# B1: [N-terminal(C18 diacid), 9L, 10A]mimylin (peptide)
# peptide: {C18 diacid}-EASELSTALAGRLSAELHELATLPRTETGPESP-NH2
# SMILES: CC(C)C[C@H](NC(=O)[C@H](C)NC(=O)[C@@H](NC(=O)[C@H](CO)NC(=O)[C@H](CC(C)C)NC(=O)[C@H](CCC(=O)O)NC(=O)[C@H](CO)NC(=O)[C@H](C)NC(=O)[C@H](CCC(=O)O)NC(=O)CCCCCCCCCCCCCCCCC(=O)O)[C@@H](C)O)C(=O)N[C@@H](C)C(=O)NCC(=O)N[C@@H](CCCNC(=N)N)C(=O)N[C@@H](CC(C)C)C(=O)N[C@@H](CO)C(=O)N[C@@H](C)C(=O)N[C@@H](CCC(=O)O)C(=O)N[C@@H](CC(C)C)C(=O)N[C@@H](Cc1c[nH]cn1)C(=O)N[C@@H](CCC(=O)O)C(=O)N[C@@H](CC(C)C)C(=O)N[C@@H](C)C(=O)N[C@H](C(=O)N[C@@H](CC(C)C)C(=O)N1CCC[C@H]1C(=O)N[C@@H](CCCNC(=N)N)C(=O)N[C@H](C(=O)N[C@@H](CCC(=O)O)C(=O)N[C@H](C(=O)NCC(=O)N1CCC[C@H]1C(=O)N[C@@H](CCC(=O)O)C(=O)N[C@@H](CO)C(=O)N1CCC[C@H]1C(N)=O)[C@@H](C)O)[C@@H](C)O)[C@@H](C)O
# B2: [N-terminal(C18 diacid), 9V, 25P]mimylin (peptide)
# peptide: {C18 diacid}-EASELSTAVLGRLSAELHELATLPPTETGPESP-NH2
# SMILES: CC(C)C[C@H](NC(=O)[C@H](CCC(=O)O)NC(=O)[C@H](Cc1c[nH]cn1)NC(=O)[C@H](CC(C)C)NC(=O)[C@H](CCC(=O)O)NC(=O)[C@H](C)NC(=O)[C@H](CO)NC(=O)[C@H](CC(C)C)NC(=O)[C@H](CCCNC(=N)N)NC(=O)CNC(=O)[C@H](CC(C)C)NC(=O)[C@@H](NC(=O)[C@H](C)NC(=O)[C@@H](NC(=O)[C@H](CO)NC(=O)[C@H](CC(C)C)NC(=O)[C@H](CCC(=O)O)NC(=O)[C@H](CO)NC(=O)[C@H](C)NC(=O)[C@H](CCC(=O)O)NC(=O)CCCCCCCCCCCCCCCCC(=O)O)[C@@H](C)O)C(C)C)C(=O)N[C@@H](C)C(=O)N[C@H](C(=O)N[C@@H](CC(C)C)C(=O)N1CCC[C@H]1C(=O)N1CCC[C@H]1C(=O)N[C@H](C(=O)N[C@@H](CCC(=O)O)C(=O)N[C@H](C(=O)NCC(=O)N1CCC[C@H]1C(=O)N[C@@H](CCC(=O)O)C(=O)N[C@@H](CO)C(=O)N1CCC[C@H]1C(N)=O)[C@@H](C)O)[C@@H](C)O)[C@@H](C)O
# B3: [N-terminal(C18 diacid), 3P, 9V]mimylin (peptide)
# peptide: {C18 diacid}-EAPELSTAVLGRLSAELHELATLPRTETGPESP-NH2
# SMILES: CC(C)C[C@H](NC(=O)[C@H](CCC(=O)O)NC(=O)[C@H](Cc1c[nH]cn1)NC(=O)[C@H](CC(C)C)NC(=O)[C@H](CCC(=O)O)NC(=O)[C@H](C)NC(=O)[C@H](CO)NC(=O)[C@H](CC(C)C)NC(=O)[C@H](CCCNC(=N)N)NC(=O)CNC(=O)[C@H](CC(C)C)NC(=O)[C@@H](NC(=O)[C@H](C)NC(=O)[C@@H](NC(=O)[C@H](CO)NC(=O)[C@H](CC(C)C)NC(=O)[C@H](CCC(=O)O)NC(=O)[C@@H]1CCCN1C(=O)[C@H](C)NC(=O)[C@H](CCC(=O)O)NC(=O)CCCCCCCCCCCCCCCCC(=O)O)[C@@H](C)O)C(C)C)C(=O)N[C@@H](C)C(=O)N[C@H](C(=O)N[C@@H](CC(C)C)C(=O)N1CCC[C@H]1C(=O)N[C@@H](CCCNC(=N)N)C(=O)N[C@H](C(=O)N[C@@H](CCC(=O)O)C(=O)N[C@H](C(=O)NCC(=O)N1CCC[C@H]1C(=O)N[C@@H](CCC(=O)O)C(=O)N[C@@H](CO)C(=O)N1CCC[C@H]1C(N)=O)[C@@H](C)O)[C@@H](C)O)[C@@H](C)O
# B4: [N-terminal(C18 diacid), 2P, 9V]mimylin (peptide)
# peptide: {C18 diacid}-EPSELSTAVLGRLSAELHELATLPRTETGPESP-NH2
# SMILES: CC(C)C[C@H](NC(=O)[C@H](CCC(=O)O)NC(=O)[C@H](Cc1c[nH]cn1)NC(=O)[C@H](CC(C)C)NC(=O)[C@H](CCC(=O)O)NC(=O)[C@H](C)NC(=O)[C@H](CO)NC(=O)[C@H](CC(C)C)NC(=O)[C@H](CCCNC(=N)N)NC(=O)CNC(=O)[C@H](CC(C)C)NC(=O)[C@@H](NC(=O)[C@H](C)NC(=O)[C@@H](NC(=O)[C@H](CO)NC(=O)[C@H](CC(C)C)NC(=O)[C@H](CCC(=O)O)NC(=O)[C@H](CO)NC(=O)[C@@H]1CCCN1C(=O)[C@H](CCC(=O)O)NC(=O)CCCCCCCCCCCCCCCCC(=O)O)[C@@H](C)O)C(C)C)C(=O)N[C@@H](C)C(=O)N[C@H](C(=O)N[C@@H](CC(C)C)C(=O)N1CCC[C@H]1C(=O)N[C@@H](CCCNC(=N)N)C(=O)N[C@H](C(=O)N[C@@H](CCC(=O)O)C(=O)N[C@H](C(=O)NCC(=O)N1CCC[C@H]1C(=O)N[C@@H](CCC(=O)O)C(=O)N[C@@H](CO)C(=O)N1CCC[C@H]1C(N)=O)[C@@H](C)O)[C@@H](C)O)[C@@H](C)O
# B5: [N-terminal(C18 diacid), 5I, 9I]mimylin (peptide)
# peptide: {C18 diacid}-EASEISTAILGRLSAELHELATLPRTETGPESP-NH2
# SMILES: CC[C@H](C)[C@H](NC(=O)[C@H](C)NC(=O)[C@@H](NC(=O)[C@H](CO)NC(=O)[C@@H](NC(=O)[C@H](CCC(=O)O)NC(=O)[C@H](CO)NC(=O)[C@H](C)NC(=O)[C@H](CCC(=O)O)NC(=O)CCCCCCCCCCCCCCCCC(=O)O)[C@@H](C)CC)[C@@H](C)O)C(=O)N[C@@H](CC(C)C)C(=O)NCC(=O)N[C@@H](CCCNC(=N)N)C(=O)N[C@@H](CC(C)C)C(=O)N[C@@H](CO)C(=O)N[C@@H](C)C(=O)N[C@@H](CCC(=O)O)C(=O)N[C@@H](CC(C)C)C(=O)N[C@@H](Cc1c[nH]cn1)C(=O)N[C@@H](CCC(=O)O)C(=O)N[C@@H](CC(C)C)C(=O)N[C@@H](C)C(=O)N[C@H](C(=O)N[C@@H](CC(C)C)C(=O)N1CCC[C@H]1C(=O)N[C@@H](CCCNC(=N)N)C(=O)N[C@H](C(=O)N[C@@H](CCC(=O)O)C(=O)N[C@H](C(=O)NCC(=O)N1CCC[C@H]1C(=O)N[C@@H](CCC(=O)O)C(=O)N[C@@H](CO)C(=O)N1CCC[C@H]1C(N)=O)[C@@H](C)O)[C@@H](C)O)[C@@H](C)O
# B6: [N-terminal(C18 diacid), 9V, 10I]mimylin (peptide)
# peptide: {C18 diacid}-EASELSTAVIGRLSAELHELATLPRTETGPESP-NH2
# SMILES: CC[C@H](C)[C@H](NC(=O)[C@@H](NC(=O)[C@H](C)NC(=O)[C@@H](NC(=O)[C@H](CO)NC(=O)[C@H](CC(C)C)NC(=O)[C@H](CCC(=O)O)NC(=O)[C@H](CO)NC(=O)[C@H](C)NC(=O)[C@H](CCC(=O)O)NC(=O)CCCCCCCCCCCCCCCCC(=O)O)[C@@H](C)O)C(C)C)C(=O)NCC(=O)N[C@@H](CCCNC(=N)N)C(=O)N[C@@H](CC(C)C)C(=O)N[C@@H](CO)C(=O)N[C@@H](C)C(=O)N[C@@H](CCC(=O)O)C(=O)N[C@@H](CC(C)C)C(=O)N[C@@H](Cc1c[nH]cn1)C(=O)N[C@@H](CCC(=O)O)C(=O)N[C@@H](CC(C)C)C(=O)N[C@@H](C)C(=O)N[C@H](C(=O)N[C@@H](CC(C)C)C(=O)N1CCC[C@H]1C(=O)N[C@@H](CCCNC(=N)N)C(=O)N[C@H](C(=O)N[C@@H](CCC(=O)O)C(=O)N[C@H](C(=O)NCC(=O)N1CCC[C@H]1C(=O)N[C@@H](CCC(=O)O)C(=O)N[C@@H](CO)C(=O)N1CCC[C@H]1C(N)=O)[C@@H](C)O)[C@@H](C)O)[C@@H](C)O
# B7: [N-terminal(C18 diacid), 4P, 9V]mimylin (peptide)
# peptide: {C18 diacid}-EASPLSTAVLGRLSAELHELATLPRTETGPESP-NH2
# SMILES: CC(C)C[C@H](NC(=O)[C@H](CCC(=O)O)NC(=O)[C@H](Cc1c[nH]cn1)NC(=O)[C@H](CC(C)C)NC(=O)[C@H](CCC(=O)O)NC(=O)[C@H](C)NC(=O)[C@H](CO)NC(=O)[C@H](CC(C)C)NC(=O)[C@H](CCCNC(=N)N)NC(=O)CNC(=O)[C@H](CC(C)C)NC(=O)[C@@H](NC(=O)[C@H](C)NC(=O)[C@@H](NC(=O)[C@H](CO)NC(=O)[C@H](CC(C)C)NC(=O)[C@@H]1CCCN1C(=O)[C@H](CO)NC(=O)[C@H](C)NC(=O)[C@H](CCC(=O)O)NC(=O)CCCCCCCCCCCCCCCCC(=O)O)[C@@H](C)O)C(C)C)C(=O)N[C@@H](C)C(=O)N[C@H](C(=O)N[C@@H](CC(C)C)C(=O)N1CCC[C@H]1C(=O)N[C@@H](CCCNC(=N)N)C(=O)N[C@H](C(=O)N[C@@H](CCC(=O)O)C(=O)N[C@H](C(=O)NCC(=O)N1CCC[C@H]1C(=O)N[C@@H](CCC(=O)O)C(=O)N[C@@H](CO)C(=O)N1CCC[C@H]1C(N)=O)[C@@H](C)O)[C@@H](C)O)[C@@H](C)O
# B8: [N-terminal(C18 diacid), 5V, 9V]mimylin (peptide)
# peptide: {C18 diacid}-EASEVSTAVLGRLSAELHELATLPRTETGPESP-NH2
# SMILES: CC(C)C[C@H](NC(=O)[C@H](CCC(=O)O)NC(=O)[C@H](Cc1c[nH]cn1)NC(=O)[C@H](CC(C)C)NC(=O)[C@H](CCC(=O)O)NC(=O)[C@H](C)NC(=O)[C@H](CO)NC(=O)[C@H](CC(C)C)NC(=O)[C@H](CCCNC(=N)N)NC(=O)CNC(=O)[C@H](CC(C)C)NC(=O)[C@@H](NC(=O)[C@H](C)NC(=O)[C@@H](NC(=O)[C@H](CO)NC(=O)[C@@H](NC(=O)[C@H](CCC(=O)O)NC(=O)[C@H](CO)NC(=O)[C@H](C)NC(=O)[C@H](CCC(=O)O)NC(=O)CCCCCCCCCCCCCCCCC(=O)O)C(C)C)[C@@H](C)O)C(C)C)C(=O)N[C@@H](C)C(=O)N[C@H](C(=O)N[C@@H](CC(C)C)C(=O)N1CCC[C@H]1C(=O)N[C@@H](CCCNC(=N)N)C(=O)N[C@H](C(=O)N[C@@H](CCC(=O)O)C(=O)N[C@H](C(=O)NCC(=O)N1CCC[C@H]1C(=O)N[C@@H](CCC(=O)O)C(=O)N[C@@H](CO)C(=O)N1CCC[C@H]1C(N)=O)[C@@H](C)O)[C@@H](C)O)[C@@H](C)O
# Target: T1, human amylin receptor (human calcitonin receptor + human RAMP3) (human)
# Experiment: whole-cell competition vs 125I-rat amylin (Assay Va)
row,IC50,Binder
1,374 pM,B1
2,383 pM,B2
3,352 pM,B3
4,375 pM,B4
5,400 pM,B5
6,891 pM,B6
7,323 pM,B7
8,824 pM,B8
